Assays:
Botrytis cinerea conidia = experiment: In vitro liquid-based assay (fungal biomass, 96-well plates, Cytation 5); assay type: cell-based; details: co-incubated with conidia for three days, vs untreated control
Method: Fungal culture. The Botrytis cinerea was plated each week the culture onto Malt Extract Agar (MEA) from long-term storage on silica stored at 4° C. Three pellets of silica were added to the center of a MEA agar plate and grown at room temperature without parafilm/tape seal for 10-14 days before use; a culture 12 days old was typically used.
Spore and media preparation. A pure culture of B. cinerea was flooded with a 0.01% Triton x-100 solution and conidia scraped free with a sterile hockey stick. The suspension was transferred to two, 1.5 mL centrifuge tubes and centrifuged at 8000 rpm for two minutes. The supernatant was discarded, pelleted spores washed twice with sterile water, then resuspended in sterile water. Conidia were quantified using a hemacytometer and diluted to a final concentration of 5000 conidia/mL stock. A stock solution of 1.25× minimal media was prepared for the assay setup using the components below. Once the stock solution was made, the pH was adjusted to 6.0 using NaOH or KOH, then filter sterilized through a 0.2 um filter tower and vacuum pump and stored at 4° C. The Kao & Michayluk Vitamins (100×) is a filter sterilized stock solution. The stock contains vitamins and amino acids as described by Kao & Michayluk. After filter sterilization, 20 mg of 4-Aminobenzoic acid in 100 ml of solution was added.
Experimental setup. Screening assays were setup in 96-well plates with conidia co-incubated with treatments (controls and dsRNAs) for three days before determining fungal biomass. Each treatment was replicated eight times within a single plate. In each well consisted of 12.5 μl of conidia suspension, 25 μl of the treatment, 12.5 μl of sterile deionized water, and 200 μl of minimal media. Each plate was covered with a breath right film and placed in the percival growth chamber at 23° C. on the shaking platform set to 120 RPM with 24-hour lighting. Plates were incubated for 72 hours before determining fungal growth.
Reading assay plate. Fungal biomass was determined by reading plates with the Cytation 5 machine. The program was set to compile 8 photo slices per well under brightfield microscopy with a 2.5× lens to measure biomass.
Data analysis. Analysis will automatically run on Cytation5 to determine final biomass.
Results are shown in Table 1B representing the average reduction in biomass vs. control for tested sequences across several runs described above.

[1] = system: Botrytis cinerea B05.10 isolate; experiment: Greenhouse whole plant assay (tomato 'Lanai', disease severity); assay type: in vivo; details: final rating day (rating #3)
Method: Plant Tissue: Tomato seedlings, variety “Lanai”, were seeded then thinned to one plant per pot in an 18 cell tray. […] Plants were grown at a 23° C./17° C. day/night temperature with 10 hours of light each 24-hour period. The RH was ambient and plants were fertilized two times a day every day except for Sunday when they received only water. Plants were grown using Fafard brand medium (70-80% sphagnum peat moss, perlite, vermiculite, dolomite limestone and watering agent) for the entire experiment.
Fungal culture. A Botrytis cinerea B05.10 isolate was maintained, and spores were harvested as previously described for detached leaf assays, except a grape juice additive was not used for inoculum preparation.
Treatment of plants. Whole tomato plants were treated ˜24 hours before inoculation using the spray booth. A 0.07% Silwet L-77 solution was used as a spreader and added for a 0.07% final volume in water (Silwet L-77 brand Phyto Technology Laboratories, S7777 Lot #14D7777001 F). The spray booth deck was set to 20″ above the plant canopy and a twinjet 8002EVS nozzle with 100 mesh filter placed into the spray mechanism. The spray boom was calibrated before treatment application with specs as follows: 50 GPA rate, 1.25 MPH speed, 6′ spray length, single pass, and at 45 psi to get a catch of 133 mL in 10 seconds (+/−6 mL). Each treatment was replicated ten times for each experimental run.
Inoculation. Plants were inoculated using a mist-o-matic applicator, which is pressurized by manual pumping. The inoculum suspension was poured into the mist-o-matic immediately before inoculation in the GH space. The containers were only filled half-way and inoculum was applied evenly to the surface of all foliage with even coverage.
Incubation. Plants were incubated inside of a 40″ tall humidity chamber supported by PVC pipe and covered in 3M translucent plastic. A humidifier was inside the chamber and set to low and continuous humidity (filled with tap water). The temperature was D:24-20° C./N:20-18° C. with 15 hours of light, of which 9 hours was with supplemental lighting. RH was ambient and watering occurred everyday by sub-irrigation with the bench being flooded for 10 minutes before draining.
Rating. Tomato plants were rated three times during the two-week experiment with rating starting four days post-inoculation and occurring every three to four days after the initial rating date. Plants were rated for the number of lesions and disease severity, which is the percentage of the plant that was symptomatic including necrotic lesions, pathogen sporulation, and chlorosis.
Data analysis. […] Percent disease severity (%DS) was determined by the percent area of the tomato foliage with symptoms including lesions, chlorosis, necrosis, and wilting. Disease severity was rated at three dates (Rating #) over the 12-day test period. Treatments were compared to the untreated, inoculated control and a chemical standard. Statistical analysis was done using SAS JMP version 13.2.1 with treatments compared to the untreated, inoculated control and a chemical standard using Tukey-Kramer and student's T tests.

[2] = system: Botrytis cinerea isolate (B05.10); experiment: Detached leaf assay (tomato leaflets, lesion size); assay type: in vivo; details: five days post inoculation, vs untreated inoculated control
Method: Plant tissue. Tomato plants, variety Brandywine, were grown in the greenhouse for 3 weeks before harvesting the first true leaves for assays. Nodes 2-4 were prioritized for harvest and only lateral leaflets were used for assays. Leaflets of approximately the same size were used each week and were randomized among treatments. Detached leaflets were immediately brought into the lab for treatment and used within 4 hours of harvest. Detached leaflets were kept at 4° C. until they were treated and placed onto a 1% water agar medium for incubation.
Fungal culture. A Botrytis cinerea isolate (B05.10) was preserved on silica for long-term storage and pulled from these tubes stored at 4° C. for growth on a nutritive medium. Three pellets of silica were added to the center of a Malt Extract Agar (MEA) agar plate and grown at room temperature without parafilm/tape seal for ˜14 days, or until abundant conidia formation, before use.
Treatment of leaflets. Leaflets were treated 24 hours before inoculation and applied using an atomizer to get a fine mist of small droplets entirely covering the leaflet. Silwet L-77 was used as a spreader and added for a 0.03% final concentration (Silwet L-77 brand Phyto Technology Laboratories, S7777 Lot #14D7777001 F). The inoculated control was sprayed with the same volume of sterile DI water with Silwet L-77 in the absence of fungicide or experimental material. Leaflets were spray treated by laying them on a paper towel and holding the atomizer ˜6″ away from the leaflet for applications. Treated leaves were placed on a 1% water agar (10 g Bacto Agar, Difco, in 1 L deionized water, sterilized for 30 minutes at 121° C. and poured when reached a temp of 55° C. into 100×20 mm Petri dishes), with lids of the Petri dishes placed back on before putting Petri dishes under plastic bags to maintain humidity before inoculation the following day. Petri dishes of treated leaflets were left on the lab counter until the following day. Each treatment was replicated ten times with each replicate being a single treated leaflet with two inoculation sites, one on each side of the leaf midvein.
Inoculation. The conidial suspension was prepared by pouring a 7% white grape juice solution onto the culture plate, then scraping the plate with a sterile spatula to dislodge the spores and mycelia. The grape juice solution was prepared by mixing Welch's brand organic white grape juice into sterile deionized water. After dislodging the spores and mycelia of the culture, the suspension was poured through two layers of cheesecloth to remove fungal mycelia and catch the conidial suspension in a clean 50 mL conical tube. Approximately 3 uL of TWEEN 20 was added to conidial suspension to prevent sticking to conical tube. The spore concentration was determined using a Neubauer Improved hemocytometer and inoculum was diluted with more 7% grape juice until a spore concentration of 1×10^5 conidia/mL was reached. Inoculum was used to inoculate host tissue within 2 hours of preparation. Each tomato leaflet was inoculated twice, with inoculation sites placed one per side of the leaflet midvein. A 10 μL volume of spore suspension was placed at each inoculation site using a repeater pipette. Special care was taken not to touch the tip to leaflet surface to avoid contamination between treatments.
Incubation. Petri dishes were placed on lunch trays 6 plates high and moved to an incubator. The incubator was humidity controlled and holds at ˜75% relative humidity. The incubator was kept on 12/12 light/dark days and is set to a temperature of 23° C.
Rating. Measurements were taken at five days post inoculation (DPI). Each lesion that developed was measured using electronic calipers in 2 directions perpendicular to each other to help determine lesion diameter.
Data analysis. Data was analyzed using the SAS JMP statistical program (version 13.2.1) with comparisons made to the untreated, inoculated control. […]

Row | Molecule | Average % Reduction in Biomass (Botrytis cinerea conidia; 25 ppm dsRNA) | Average % Reduction in Biomass (Botrytis cinerea conidia; 150 ppm dsRNA) | % control ([1]; 25 g ai/ha, three runs, four-week-old 'Lanai' tomato plant) | Average % Reduction in Lesion Size ([2]; 30 ppm) | Average % Reduction in Lesion Size ([2]; 50 ppm) | % control ([1]; 8 g ai/ha, two runs, three-week-old 'Lanai' tomato plant) | % control ([1]; 25 g ai/ha, two runs, three-week-old 'Lanai' tomato plant)
1 | GS659: dsRNA trigger targeting B. cinerea SDH (XM_001548300.2_200_pos_342); trigger SEQ ID NO 16, RNA 28, reverse complement 40 (nucleic acid, listed as Botrytis cinerea) sense: UCAGAUGCGAACCAUGGCAUCAGUCGACAGCUCAGUACCUGAAAGUCCUACCGUUUCUCCAUCCCGUCCUGUCGAAUCUGCUUCCAAGACCUCCACUGUCAAGGAACCUGCUGCCGACUCGGAGUCUUUGAUCAAGACAUUCAACAUUUACAGAUGGAACCCAGAUGAGCCAACCAGCAAGCCCCGCAUGCAAUCUUACA antisense: UGUAAGAUUGCAUGCGGGGCUUGCUGGUUGGCUCAUCUGGGUUCCAUCUGUAAAUGUUGAAUGUCUUGAUCAAAGACUCCGAGUCGGCAGCAGGUUCCUUGACAGUGGAGGUCUUGGAAGCAGAUUCGACAGGACGGGAUGGAGAAACGGUAGGACUUUCAGGUACUGAGCUGUCGACUGAUGCCAUGGUUCGCAUCUGA | 12% | 28% | 29% | 21.31% | 19.19% |  | 
2 | GS413: dsRNA trigger targeting B. cinerea NBP35 (XM_001552213.2); trigger SEQ ID NO 15, RNA 27, reverse complement 39 (nucleic acid, listed as Botrytis cinerea) sense: GCAAAAUUCCAUUGUUGCUUUGUAAACAUCCAUCCUACGACUUUAUUAUCUCAUCGAUCAUCCCACAAUUUACAUUUUCCAUUUUACACUCAAUAAACAAUUGAAAAACAAUAUUCUGAGUUGGUCGCAGUAAAUCAUGGCUCCAUCUCUUGAGGAAAGGCCCGAUGCUGUGCAAGACGUCCUCUCAAAUCCUCUCAAAAAUGCUCCCAAACUUGUCGCCCCAGAACCUGAACAUUGUCCCGGUCCAGAAUCCGAAGCGGCGGGAAAGGCAGAUUCUUGCGCGGGCUGUCCAAACCAAGCCAUAUGCGCAUCCGCACCCAAAGGUCCCGAUCCAGAUAUUCCAGCUAUAACUGCACGUCUUGCUGGUAUCAAACAUAAAGUCUUAAUUCUGUCGGGGAAAGGUGGUGUAGGAAAAAGCACAUUUACAACUUUACUUGCACAUGCCUUCGCAACAAAUGAGGACAACACAGUAGGAAUCAU antisense: AUGAUUCCUACUGUGUUGUCCUCAUUUGUUGCGAAGGCAUGUGCAAGUAAAGUUGUAAAUGUGCUUUUUCCUACACCACCUUUCCCCGACAGAAUUAAGACUUUAUGUUUGAUACCAGCAAGACGUGCAGUUAUAGCUGGAAUAUCUGGAUCGGGACCUUUGGGUGCGGAUGCGCAUAUGGCUUGGUUUGGACAGCCCGCGCAAGAAUCUGCCUUUCCCGCCGCUUCGGAUUCUGGACCGGGACAAUGUUCAGGUUCUGGGGCGACAAGUUUGGGAGCAUUUUUGAGAGGAUUUGAGAGGACGUCUUGCACAGCAUCGGGCCUUUCCUCAAGAGAUGGAGCCAUGAUUUACUGCGACCAACUCAGAAUAUUGUUUUUCAAUUGUUUAUUGAGUGUAAAAUGGAAAAUGUAAAUUGUGGGAUGAUCGAUGAGAUAAUAAAGUCGUAGGAUGGAUGUUUACAAAGCAACAAUGGAAUUUUGC | 14% | 53% |  | 35.58% | 20.66% | 34% | 26%
